Literature values in US20040071657A1, “Chemoattractant recruitment of dendritic cells for enhancement of immunization” (priority 2003, published 2004).

System: circulating DC
Conditions: in vivo administration to mice

B1: Flt3-L: Flt3 ligand, a growth factor polypeptide that promotes dendritic cell growth (protein, UniProt P49771 27-235, looked up)
Fms-related tyrosine kinase 3 …: TQDCSFQHSPISSDFAVKIRELSDYLLQDYPVTVASNLQDEELCGGLWRLVLAQRWMERLKTVAGSKMQGLLERVNTEIHFVTKCAFQPPPSCLRFVQTNISRLLQETSEQLVALKPWITRQNFSRCLELQCQPDSSTLPPPWSPRPLEATAPTAPQPPLLLLLLLPVGLLLLAAAWCLHWQRTRRRTPRPGEQVPPVPSPQDLLLVEH
Q: With B1 as the molecule, how does the “increase in the number of circulating DC” value read?
A: Its value is 10-30 fold.
